Molecular target: the molecule itself
Assay: SEC + other: mass spectrometry; HiLoad 16/60 Superdex 75, 20 mM sodium phosphate pH 6.5, 150 mM NaCl, with or without 2 mM DTT; dimer fraction decreased with DTT; fractions identified by mass spectrometry; monomer to covalent dimer

B1: His-SUMO-peptide fusion protein (SUMO_SAPKELCKAVSVSM) (domain or fragment, human)
chain: SAPKELCKAVSVSM
notes: three amino acids Ser-Ala-Pro linker inserted between the SUMO tag and the peptide; The peptide is the C-terminus of the chain (stop codon after it); The dimer is covalent; Printed mass 15,819 (printed as kDa); source: E. coli Rosetta (DE3), purified (Ni-NTA agarose, SEC); not shown: His, N-terminal, kept; SUMO, N-terminal, kept
stoichiometry N: 2
